Source: patent US9505841B2, “Use of an anti-Ang2 antibody” (Samsung Electronics Co., Ltd., priority 2013, dated 2016)

Tests used:
E-selectin = test: LPS-induced mRNA expression of E-selectin in HUVEC (qPCR); format: cell-based, human; conditions: 100 ng/ml LPS 5 hours, 0.2 ug/ml Ang1 or 0.1 ug/ml Ang2 + 0.5 ug/ml antibody
Method: To see anti-inflammatory effects by antibody 10D6, HUVEC (ATCC) cells (4×10^5) were treated with Ang2 alone or Ang2 together with antibody 10D6, and a group in which Ang1 and Ang2 (R&D systems) and Regeneron Co. antibody (RG antibody) were co-treated was included as a control group. HUVEC cells were treated with 0.2 ug/ml of Ang1, 0.1 ug/ml of Ang2, or 0.1 ug/ml of Ang2 and 0.5 ug/ml of antibody, respectively and after 30-min. pre-incubation, they were treated with 100 ng/ml of LPS (Sigma) to induce inflammatory response and incubated for 5 hours.
The degree of the inflammatory response was identified by measuring the mRNA expression degree of an inflammatory adhesion substance (ICAM-1, E-selectin). The cells were washed using PBS, RNA was extracted using RNeasy Mini kit (Qiagen), and among them, 2 ug of RNA was synthesized into cDNA using Transcriptor First Strand cDNA synthesis kit (Roche). qPCR reaction was performed using RT2 SYBR™ Green Mastermix (Qiagen) and LightCycler™ 480 Real-Time PCR System (Roche). As an internal control for calibrating the amount of RNA in a sample, HPRT1 was used, and qPCR complied with the following procedures with regard to all the primers.
Step 1: 95° C., 10 min; Step 2 (45 cycles): Step 2-1: 95° C., 15 sec; Step 2-2: 60° C., 1 min; Step 3: 65° C., 15 sec; Step 4: 95° C., continuous (every 20° C.); Step 6: 40° C., 10 sec.

[1] = test system: LLC (Lewis Lung Carcinoma); test: LLC tumor growth model; format: in vivo, mouse; conditions: LLC in C57BL/6 mice; 10 mg/kg intraperitoneal three times a week; control Fc of IgG1
Method: To see the tumor growth inhibitory effects of Ang2 antibody, a […] Xenograft model using a LLC (Lewis Lung Carcinoma) was employed.
LLC cells (ATCC) were cultured using 10% FBS (Gibco)-supplemented DMEM (Gibco) media. 1×10^6 of LLC cells were re-suspended in 100 ul of PBS (Gibco) and then subcutaneously injected into 6˜8-week-old C57BL/6 mice (Jackson Laboratory) anesthetized with 1˜2% isoflurane.
When the size of tumors reached 50˜100 mm^3, anti-Ang2 antibody (10D6) was injected at the concentration of 10 mg/kg via an intraperitoneal injection three times a week and the size of the tumors was measured.
The size of tumor (V) was calculated using the following formula: Volume (V)=(width)2×length/2
For comparison, the same experiment was performed to a control group treated with Fc of IgG1 and a comparative group treated with antibody 4H10 (refer to Example 3).

[2] = test system: lymphatic endothelial cells; test: Cell migration assay (xCelligence RTCA); format: cell-based; conditions: 2 ug/ml Ang2 with antibody; slope (1/hr)
Method: Also, the measurement of the mobility of lymphatic endothelial cells was conducted using xCelligence RTCA (Realtime cell analyzer; GE Healthcare). The RTCA is a non-invasive cell monitoring system by measuring impedance in real time to identify the change of a cell. To perform a cell migration assay, a CIM-plate16 (GE Healthcare) with a lower chamber and an upper chamber was used wherein microelectrodes for measuring impedance are arranged in the upper chamber and if the cells seeded into the chamber migrate through fine holes, the migration degree of the cells can be identified through their adhesion to the microelectrodes, and it was referred to as migration index. The lymphatic endothelial cells (P5-7; Lonza) which grew up in EGM-2 media (Lonza) were cultured in 1% FBS-added EBM media for 6 hours. 2 ug/ml of Ang2 and antibody 10D6 in 2% FBS-added EBM media were added to each well of the lower chamber of the CIM-plate 16, which was assembled with the upper chamber coated with fibronectin (Sigma). For efficiency comparison, an anti-Ang2 antibody (MedImmune Co.) was used. 30 ul of serum-free EBM media was each added to the upper chamber and then, for equilibration between the plate and media, while being placed in an incubator for 1 hour, the CIM-plate was installed on a device station in the incubator and then, background values were measured. […]

LLC tumor tissues = test: H&E staining of necrotic region in LLC tumors; format: in vivo, mouse; conditions: 10 mg/kg i.p., five administrations, compared to Fc- or 4H10-treated group
Method: To see the effects of the structurally and functionally normalized blood vessels in tumor by treatment of antibody 10D6 on the tumor tissues, referring to the method of Example 14, LLC tumor cells were subcutaneously injected into mice. When the size of tumors reached 50˜100 mm^3, anti-Ang2 antibody 10D6 was injected at the concentration of 10 mg/kg via an intraperitoneal injection three times a week and the size of the tumors was measured. After administering the antibody five-times, the tumor sections were stained with H&E according to standard protocol, and then, the Eosin+ cell necrotic region in tumor tissues was confirmed. For comparison, the same experiment was performed to a control group treated with Fc of IgG1 and a comparative group treated with antibody 4H10 (refer to Example 3).

B1: 10D6: mouse anti-Ang2 monoclonal antibody from hybridoma KCLRF-BP-00295; heavy chain variable region SEQ ID NO: 7, light chain variable region SEQ ID NO: 9 (antibody, V domains shown)
VH: DVQLQESGPGLVKPSQSLSLTCTVTGYSITSDYAWNWIRQFPGNKLEWMGYINYSGNTDYNPSLKSRSSITRDTSKNQFFLQLNSVTTGDTATYYCARGNFEGAMDYWGQGTSVTVSS
VL: SIVMTQTPKFLLVSAGDRVTITCKASQSVSNDVAWYQQKPGQSPKLLIYYASNRYPGVPDRFTGSGYGTDFTFTISTVQAEDLAVYFCQQDYSSPWTFGGGTKLEIK
modifications: Synthetic (Heavy chain variable region of an anti-Ang2 antibody); Synthetic (Light chain variable region of anti-Ang2 antibody)
E-selectin
  expression of E-selectin induced by LPS: remarkably suppressed
[1]
  inhibition of growth of the tumor compared to the control group: about 40%
[2]
  migration of lymphatic endothelial cells: increased
LLC tumor tissues
  cell necrotic region in tumor tissues: smaller
